Source: US20260153518

Key:
[1] = target: candidate peptide No. 17 (mCXCL-1 positions 1-14, Cys replaced with Ser), 5-carboxyfluorescein labelled
[2] = target: candidate peptide No. 20 (hCXCL-3 positions 1-14, Cys replaced with Ser), 5-carboxyfluorescein labelled
[3] = target: candidate peptide No. 5 (hIFN-alpha-6 positions 154-165), 5-carboxyfluorescein labelled
[4] = target: candidate peptide No. 7 (hIFN-alpha-2 positions 154-165), 5-carboxyfluorescein labelled
[5] = target: PJ-8 (positive control peptide)
[6] = target: candidate peptide No. 4 (hIFN-alpha-10 positions 150-161), 5-carboxyfluorescein labelled
[7] = target: candidate peptide No. 2 (hCCL-14 positions 61-74), 5-carboxyfluorescein labelled
[8] = target: candidate peptide No. 22 (hCXCL-5 positions 3-15, Cys replaced with Ser), 5-carboxyfluorescein labelled
[9] = target: PP-2b (positive control peptide)
[10] = target: candidate peptide No. 19 (hCXCL-7 positions 76-89), 5-carboxyfluorescein labelled
[11] = target: candidate peptide No. 15 (mIFN-gamma positions 128-141), 5-carboxyfluorescein labelled
[12] = target: candidate peptide No. 16 (mIFN-gamma positions 143-154), 5-carboxyfluorescein labelled
[13] = target: candidate peptide No. 6 (hIFN-alpha-6 positions 150-161), 5-carboxyfluorescein labelled
[14] = target: candidate peptide No. 11 (hIFN-gamma positions 126-139), 5-carboxyfluorescein labelled

B1: human MMP12 (matrix metalloproteinase 12), activated with APMA (protein)
chain: GPVWRKHYITYRINNYTPDMNREDVDYAIRKAFQVWSNVTPLKFSKINTGMADILVVFARGAHGDFHAFDGKGGILAHAFGPGSGIGGDAHFDEDEFWTTHSGGTNLFLTAVHEIGHSLGLGHSSDPKAVMFPTYKYVDINTFRLSADDIRGIQSLYGDPKENQRLPNPDNSEPALCDPNLSFDAVTTVGNKIFFFKDRFFWLKVSERPKTSVNLISSLWPTLPSGIEAAYEIEARNQVFLFKDDKYWLISNLRPEPNYPKSIHSFGFPNFVKKIDAAVFNPRFYRTYFFVDNQYWRYDERRQMMDPGYPKLITKNFQGIGPKIDAVFYSKNKYYYFFQGSNQFEYDFLLQRITKTLKSNSWFGC
B1 showed a Cleavage rate (%) [1] of 98.6%, a Cleavage rate (%) [2] of 100% and a Cleavage rate (%) [3] of 38.5%. For the same protein, the Cleavage rate (%) [4] was 70.4%, the “cleavage by MMP12 (UPLC)” value [5] was “it was confirmed that the two positive controls were cleaved by MMP12 (data is not shown)” and the Cleavage rate (%) [6] was 53.5%. The Cleavage rate (%) [7] was 56%, the Cleavage rate (%) [8] was 100% and the “cleavage by MMP12 (UPLC)” value [9] was “it was confirmed that the two positive controls were cleaved by MMP12 (data is not shown)”. The Cleavage rate (%) [10] was 26%, the Cleavage rate (%) [11] was 10.5% and the Cleavage rate (%) [12] was 61.7%. It also gave a Cleavage rate (%) [13] of 90.3% and a Cleavage rate (%) [14] of 100%.
